Assay results from publication PMC3972757 (Biochemistry, 2013).

Molecular target: ubiquitin (human, UniProt P0CG47 1-76)
Assay: ITC

B1: Phe320Ala mutant of the catalytic domain of AMSH (domain or fragment, human, UniProt O95630 219-424, looked up)
chain: SDCHTTVRPAKPPVVDRSLKPGALSNSESIPTIDGLRHVVVPGRLCPQFLQLASANTARGVETCGILCGKLMRNEFTITHVLIPKQSAGSDYCNTENEEELALIQDQQGLITLGWIHTHPTQTAFLSSVDLHTHCSYQMMLPESVAIVCSPKFQETGFFKLTDHGLEEISSCRQKGFHPHSKDPPLFCSCSHVTVVDRAVTITDLR
B1 showed a Kd of 81 ± 15 µM.
